“Also recorded” adds a separate entry of the source.
System: DNA synthesis in Xenopus egg extracts
Assay: in vitro DNA replication (DNA synthesis inhibition) assay in Xenopus egg extracts, alpha-32P dCTP incorporation
Assay type: biochemical
Details: for inhibition of DNA synthesis (in words): sperm nuclei 3 ng/μl, 2 hours at room temperature
Protocol: The capacity of a compound to inhibit DNA replication can be measured as described in Example 3, by following the general method given in Blow, J. J. & Laskey, R. A. (1986). Initiation of DNA replication in nuclei and purified DNA by a cell-free extract of Xenopus eggs. Cell 47, 577-87
FIG. 3A represents the activity of HsGeminin deletion mutants. The DNA synthesis inhibition activity of a series of HsGeminin deletion mutant proteins was measured by incubation in Xenopus egg extracts. […] DNA synthesis was measured by incorporation of a radioactive label DNA precursor (dCTP) upon 2 hours incubation at room temperature. Numbers indicate the amino-acids of the HsGeminin protein. LZ=coiled-coil domain.
In order to determine whether a homodimer form of Geminin is functional, the Inventors have tested the ability of this peptide to inhibit DNA synthesis in an in vitro DNA replication assay derived from Xenopus eggs^18.
Briefly, Xenopus egg extracts were prepared as previously described^35. Inhibition assays were carried out in a 20 μl reaction containing 3 ng/μl of sperm nuclei and the indicated amounts of proteins at 1:40 ratio (protein to extract). Replication was measured by incorporation of α^32P dCTP following 2 hours incubation at room temperature.

Molecule: HsGem-LZ: residues Leu110-Ala145 of human Geminin with an extra N-terminal capping Thr residue, made by Fmoc solid-phase peptide synthesis
- interference with DNA synthesis at concentration much higher than wild-type protein (e.g. 320 nM): did not interfere with DNA synthesis
- inhibition of DNA synthesis (in words): non-functional

B1: wild type protein: total amino acid sequence of human Geminin, about 25 kDa negative regulator of genome replication (protein, listed as Homo sapiens)
chain: MNPSMKQKQEEIKENIKNSSVPRRTLKMIQPSASGSLVGRENELSAGLSKRKHRNDHLTSTTSSPGVIVPESSENKNLGGVTQESFDLMIKENPSSQYWKEVAEKRRKALYEALKENEKLHKEIEQKDNEIARLKKENKELAEVAEHVQYMAELIERLNGEPLDNFESLDNQEFDSEEETVEDSLVEDSEIGTCAEGTVSSSTDAKPCI
- inhibition of DNA synthesis (in words): efficiently inhibited DNA synthesis

B2: HsGem(76-160): deletion mutant of human Geminin, residues 76-160, hexahistidine-tagged, expressed in E. coli (protein)
chain: KNLGGVTQESFDLMIKENPSSQYWKEVAEKRRKALYEALKENEKLHKEIEQKDNEIARLKKENKELAEVAEHVQYMAELIERLNG
modifications: hexahistidine tag
notes: deletion mutant of human Geminin, residues 76-160, hexahistidine-tagged, expressed in E. coli
- inhibition of DNA synthesis (in words): Full inhibition

B3: HsGem(82-160): deletion mutant of human Geminin, residues 82-160, hexahistidine-tagged, expressed in E. coli (protein)
chain: TQESFDLMIKENPSSQYWKEVAEKRRKALYEALKENEKLHKEIEQKDNEIARLKKENKELAEVAEHVQYMAELIERLNG
modifications: hexahistidine tag
notes: deletion mutant of human Geminin, residues 82-160, hexahistidine-tagged, expressed in E. coli
- inhibition of DNA synthesis (in words): inhibited DNA synthesis, although less efficiently compared to the wild-type protein

B4: HsGem(82-145): deletion mutant of human Geminin, residues 82-145, hexahistidine-tagged, expressed in E. coli (protein)
chain: TQESFDLMIKENPSSQYWKEVAEKRRKALYEALKENEKLHKEIEQKDNEIARLKKENKELAEVA
- inhibition of DNA synthesis (in words): not functional
- inhibition of DNA synthesis (in words) (listed as mutant 82-145): ineffective in inhibiting DNA synthesis

B5: HsGem(80-212): form of HsGeminin (residues 80-212) with the coiled-coil domain plus the entire carboxy-terminal part (protein)
chain: GVTQESFDLMIKENPSSQYWKEVAEKRRKALYEALKENEKLHKEIEQKDNEIARLKKENKELAEVAEHVQYMAELIERLNGEPLDNFESLDNQEFDSEEETVEDSLVEDSEIGTCAEGTVSSSTDAKPCI
- inhibition of DNA synthesis (in words): keep the ability of Geminin to inhibit DNA synthesis; also recorded: Full inhibition
- inhibition of DNA synthesis (in words) (listed as HsGeminin (residues 80-212)): effective in inhibiting DNA synthesis

— patent US20080279855A1, “Dna Replication Modulating Peptides, Nucleic Acids Encoding Them, and Their Use in Pharmaceutical Compositions” (CENTRE NATIONAL DE LA RECHERCHE SCIENTIFIQUE, priority 2004, published 2008)
